Test results as given in patent US20030103903A1.

Target: IgE of unfractionated patient serum (pool of patients' sera known to be reactive to the epitope peptide) (human)
Assay: inhibition: whole patients' sera pre-incubated with soluble peptide, then probing solid-phase E1 peptide

QGLRGEEMEEMV [soluble form of the epitope peptide …] showed an amount of soluble peptide needed to completely inhibit binding of 70 µg.
